Measurements taken from paper PMC9860317, “Regulation of the DEAH/RHA helicase Prp43 by the G-patch factor Pfa1” (Proceedings of the National Academy of Sciences of the …, 2022).
Values joined by “and” are separate entries in the source; they are usually repeats but may differ in a detail not shown here. Equal values may be shown once.

Key:
[1] = biological target: scPrp43 (Saccharomyces cerevisiae S288c) (UniProt P53131); assay: smFRET (TIRF); conditions: smFRET: 50 mM Tris-HCl pH 7.5, 150 mM KCl, 3 mM MgCl2 (TIRF buffer B; imaging in TIRF buffer C), FP: 6 nM labeled ssRNA, buffer and temperature not in material
[2] = biological target: T1, scPrp43;scPfa1(gp) (Saccharomyces cerevisiae S288c;Saccharomyces cerevisiae) (UniProt P53131+P53866); assay: smFRET (TIRF); conditions: smFRET: 50 mM Tris-HCl pH 7.5, 150 mM KCl, 3 mM MgCl2 (TIRF buffer B; imaging in TIRF buffer C), FP: 6 nM labeled ssRNA, buffer and temperature not in material
[3] = biological target: scPrp43 (Saccharomyces cerevisiae S288c) (UniProt P53131); assay: fluorescence polarization; conditions: smFRET: 50 mM Tris-HCl pH 7.5, 150 mM KCl, 3 mM MgCl2 (TIRF buffer B; imaging in TIRF buffer C), FP: 6 nM labeled ssRNA, buffer and temperature not in material
[4] = biological target: T1, scPrp43;scPfa1(gp) (Saccharomyces cerevisiae S288c;Saccharomyces cerevisiae); assay: fluorescence polarization; conditions: smFRET: 50 mM Tris-HCl pH 7.5, 150 mM KCl, 3 mM MgCl2 (TIRF buffer B; imaging in TIRF buffer C), FP: 6 nM labeled ssRNA, buffer and temperature not in material
[5] = biological target: Chaetomium thermophilum Prp43 with fluorescence labelling sites at C170 (RecA1) and C303 (RecA2), Cy3/Cy5-labelled (Chaetomium thermophilum)

Substance: GCGCCUACGCCACCAGCUCCGUAGGCGCAGGAGCGCCUACGGAGCUGGUGGCGUAGGCGCAAAAAAAAAAAAAAAUAAAAAAAAAAAAAAAAAAAA [smFRET stem-loop RNA probe with 3' overhang]
- binding signal ([1]; 0.5 uM Prp43, 2 mM AMPPNP): 36 % bound
- binding signal ([1]; 5 uM Prp43, apo (main text gives 24%)): 21 % bound
- binding signal ([2]; 0.5 uM Prp43, 2.5 uM Pfa1(gp), nucleotide-free): 88 % bound
- binding signal (% bound (plus 20% partially unwound)) ([2]; 2 uM ATP, table row label cut, matched by FRET values): 55
- binding signal ([2]; ADP, koff 0.45 s-1): 52 % bound

Substance: ssRNA (fluorescence polarization)
- Kd ([3]; ADP): > 100000 nM
- Kd ([3]; AMPPNP): 400 nM
- Kd ([3]; nucleotide-free): 7000 nM
- Kd ([4]; nucleotide-free, with Pfa1(gp)): 30 nM
- Kd [4]: 80 nM and 500 nM

Substance: G-patch motif of Chaetomium thermophilum Pfa1 (domain or fragment)
- ATP turnover (kcat) of the Prp43–Pfa1(gp) complex with ssRNA, coupled enzymatic assay [5]: 9.6 s⁻¹
- ATP turnover (kcat) of the Prp43–Pfa1(gp) complex without ssRNA, coupled enzymatic assay (Prp43 alone: kcat = 0.01 s^-1) [5]: 0.4 s⁻¹
